# Results from US7294481.
# Target: TNF-α (UniProt P01375)
# Assay: cell-based or functional assay
# UniProt P01375, sequence (P01375 77-233 limits assumed): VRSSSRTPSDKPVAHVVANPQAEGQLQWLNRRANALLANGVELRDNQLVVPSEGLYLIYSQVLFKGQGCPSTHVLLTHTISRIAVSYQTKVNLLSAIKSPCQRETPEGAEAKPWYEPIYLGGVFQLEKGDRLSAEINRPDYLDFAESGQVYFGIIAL
# recombinant human TNFR:Fc fusion protein (TNFR-II:Fc), protein A purified, not HIC-fractionated, sequence (chain): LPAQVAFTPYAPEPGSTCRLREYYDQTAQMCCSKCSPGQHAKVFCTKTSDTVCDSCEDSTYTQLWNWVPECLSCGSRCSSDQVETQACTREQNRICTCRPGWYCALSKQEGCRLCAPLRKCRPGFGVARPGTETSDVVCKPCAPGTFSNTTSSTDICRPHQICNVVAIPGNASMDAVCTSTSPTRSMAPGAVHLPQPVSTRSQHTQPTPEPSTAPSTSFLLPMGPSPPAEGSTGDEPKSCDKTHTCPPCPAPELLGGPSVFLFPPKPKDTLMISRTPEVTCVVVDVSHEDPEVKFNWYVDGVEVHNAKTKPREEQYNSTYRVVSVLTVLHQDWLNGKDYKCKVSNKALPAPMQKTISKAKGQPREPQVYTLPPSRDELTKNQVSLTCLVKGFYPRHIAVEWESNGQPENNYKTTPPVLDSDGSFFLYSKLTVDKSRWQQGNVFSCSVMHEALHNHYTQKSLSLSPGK
Substance,bioactivity (A375 assay; HIC with sodium acetate gradient),"bioactivity (A375 cell killing neutralisation assay), compared to unfractionated material","Bioassay 10^6 units/mg (n = 2); VA12 cells, production at 28° C., IGF-1","Bioassay 10^6 units/mg (n = 2); VA12 cells, production at 32° C., IGF-1","Bioassay 10^6 units/mg (n = 2); VA12 cells, production at 34° C., IGF-1","Bioassay 10^6 units/mg (n = 2); VA12 cells, production at 37° C., IGF-1"
"TNFR:Fc, HIC peak 2 fraction (Fc fusion)",2.71e+06 U/mg,117%,,,,
"TNFR:Fc, HIC peak 3 fraction (Fc fusion)",< 340000 U/mg,11%,,,,
"recombinant human TNFR:Fc fusion protein (TNFR-II:Fc), protein A purified, not HIC-fractionated",,,2.07e+06 units/mg,1.62e+06 units/mg,950000 units/mg,490000 units/mg
